{
  "source": "the supplement of paper PMC11316812",
  "key": {"hTERT-HMEC": {"tested_on": "hTERT-HMEC", "test": "percentage of EdU-negative (G0-arrested) nuclei per well, 72 h; higher = more G0 arrest", "conditions": "reference: sequence is the full UniProt precursor, the tested protein was the secreted form or ectodomain"}, "MCF7": {"tested_on": "MCF7", "test": "percentage of EdU-negative (G0-arrested) nuclei per well, 72 h; higher = more G0 arrest", "conditions": "reference: sequence is the full UniProt precursor, the tested protein was the secreted form or ectodomain"}, "[1]": {"conditions": "protein concentration 0.01775 µM"}, "[2]": {"conditions": "protein concentration 0.1775 µM"}, "[3]": {"conditions": "protein concentration 0.0322857 µM"}, "[4]": {"conditions": "protein concentration 0.322857 µM"}, "[5]": {"conditions": "protein concentration 0.00525 µM"}, "[6]": {"conditions": "protein concentration 0.0525 µM"}, "[7]": {"conditions": "protein concentration 0.0225 µM"}, "[8]": {"conditions": "protein concentration 0.0215 µM"}},
  "note": "± gives the standard deviation of the averaged measurements.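 Note: secreted proteins added to cultured cells, EdU pulse at the end, nuclei found by Hoechst imaging, EdU status from nuclear versus surrounding ring intensity ratio, PBS as neutral control.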",
  "data": [
    {"sequence": "MASWLRRKLRGKRRPVIAFCLLMILSAMAVTRFPPQRPSAGPDPGPMEPQGVTGAPATHIRQALSSSRRQRARNMGFWRSRALPRNSILVCAEEQGHRARVDRSRESPGGDLRHPGRVRRDITLSGHPRLSTQHVVLLREDEVGDPGTKDLGHPQHGSPIQETQSEVVTLVSPLPGSDMAALPAWRATSGLTLWPHTAEGRDLLGAENRALTGGQQAEDPTLASGAHQWPGSVEKLQGSVWCDAETLLSSSRTGGQAPPWLTDHDVQMLRLLAQGEVVDKARVPAHGQVLQVGFSTEAALQDLSSPRLSQLCSQGLCGLIKRPGDLPEVLSFHVDRVLGLRRSLPAVARRFHSPLLPYRYTDGGARPVIWWAPDVQHLSDPDEDQNSLALGWLQYQALLAHSCNWPGQAPCPGIHHTEWARLALFDFLLQVHDRLDRYCCGFEPEPSDPCVEERLREKCQNPAELRLVHILVRSSDPSHLVYIDNAGNLQHPEDKLNFRLLEGIDGFPESAVKVLASGCLQNMLLKSLQMDPVFWESQGGAQGLKQVLQTLEQRGQVLLGHIQKHNLTLFRDEDP [Q9UFP1]", "values": [
      {"measurement": "percentage of EdU-negative", "setting": "hTERT-HMEC; [1]", "result": "4.53 ± 0.69", "unit": "%"},
      {"measurement": "percentage of EdU-negative", "setting": "hTERT-HMEC; [2]", "result": "4.83 ± 0.99", "unit": "%"},
      {"measurement": "percentage of EdU-negative", "setting": "MCF7; [1]", "result": "25.4 ± 2.1", "unit": "%"},
      {"measurement": "percentage of EdU-negative", "setting": "MCF7; [2]", "result": "24.5 ± 4.3", "unit": "%"}
    ]},
    {"sequence": "MASYLYGVLFAVGLCAPIYCVSPANAPSAYPRPSSTKSTPASQVYSLNTDFAFRLYRRLVLETPSQNIFFSPVSVSTSLAMLSLGAHSVTKTQILQGLGFNLTHTPESAIHQGFQHLVHSLTVPSKDLTLKMGSALFVKKELQLQANFLGNVKRLYEAEVFSTDFSNPSIAQARINSHVKKKTQGKVVDIIQGLDLLTAMVLVNHIFFKAKWEKPFHPEYTRKNFPFLVGEQVTVHVPMMHQKEQFAFGVDTELNCFVLQMDYKGDAVAFFVLPSKGKMRQLEQALSARTLRKWSHSLQKRWIEVFIPRFSISASYNLETILPKMGIQNVFDKNADFSGIAKRDSLQVSKATHKAVLDVSEEGTEATAATTTKFIVRSKDGPSYFTVSFNRTFLMMITNKATDGILFLGKVENPTKS [Q86WD7]", "values": [
      {"measurement": "percentage of EdU-negative", "setting": "hTERT-HMEC; [3]", "result": "5.19 ± 0.14", "unit": "%"},
      {"measurement": "percentage of EdU-negative", "setting": "hTERT-HMEC; [4]", "result": "6.1 ± 0.46", "unit": "%"},
      {"measurement": "percentage of EdU-negative", "setting": "MCF7; [3]", "result": "27.1 ± 1.6", "unit": "%"},
      {"measurement": "percentage of EdU-negative", "setting": "MCF7; [4]", "result": "25.7 ± 0.86", "unit": "%"}
    ]},
    {"sequence": "MATFISVQLKKTSEVDLAKPLVKFIQQTYPSGGEEQAQYCRAAEELSKLRRAAVGRPLDKHEGALETLLRYYDQICSIEPKFPFSENQICLTFTWKDAFDKGSLFGGSVKLALASLGYEKSCVLFNCAALASQIAAEQNLDNDEGLKIAAKHYQFASGAFLHIKETVLSALSREPTVDISPDTVGTLSLIMLAQAQEVFFLKATRDKMKDAIIAKLANQAADYFGDAFKQCQYKDTLPKEVFPVLAAKHCIMQANAEYHQSILAKQQKKFGEEIARLQHAAELIKTVASRYDEYVNVKDFSDKINRALAAAKKDNDFIYHDRVPDLKDLDPIGKATLVKSTPVNVPISQKFTDLFEKMVPVSVQQSLAAYNQRKADLVNRSIAQMREATTLANGVLASLNLPAAIEDVSGDTVPQSILTKSRSVIEQGGIQTVDQLIKELPELLQRNREILDESLRLLDEEEATDNDLRAKFKERWQRTPSNELYKPLRAEGTNFRTVLDKAVQADGQVKECYQSHRDTIVLLCKPEPELNAAIPSANPAKTMQGSEVVNVLKSLLSNLDEVKKEREGLENDLKSVNFDMTSKFLTALAQDGVINEEALSVTELDRVYGGLTTKVQESLKKQEGLLKNIQVSHQEFSKMKQSNNEANLREEVLKNLATAYDNFVELVANLKEGTKFYNELTEILVRFQNKCSDIVFARKTERDELLKDLQQSIAREPSAPSIPTPAYQSSPAGGHAPTPPTPAPRTMPPTKPQPPARPPPPVLPANRAPSATAPSPVGAGTAAPAPSQTPGSAPPPQAQGPPYPTYPGYPGYCQMPMPMGYNPYAYGQYNMPYPPVYHQSPGQAPYPGPQQPSYPFPQPPQQSYYPQQ [Q8WUM4]", "values": [
      {"measurement": "percentage of EdU-negative", "setting": "hTERT-HMEC; [5]", "result": "4.68 ± 0.54", "unit": "%"},
      {"measurement": "percentage of EdU-negative", "setting": "hTERT-HMEC; [6]", "result": "4.872 ± 0.012", "unit": "%"},
      {"measurement": "percentage of EdU-negative", "setting": "MCF7; [5]", "result": "24.7 ± 1.5", "unit": "%"},
      {"measurement": "percentage of EdU-negative", "setting": "MCF7; [6]", "result": "25.1 ± 1", "unit": "%"}
    ]},
    {"sequence": "MATHHTLWMGLALLGVLGDLQAAPEAQVSVQPNFQQDKFLGRWFSAGLASNSSWLREKKAALSMCKSVVAPATDGGLNLTSTFLRKNQCETRTMLLQPAGSLGSYSYRSPHWGSTYSVSVVETDYDQYALLYSQGSKGPGEDFRMATLYSRTQTPRAELKEKFTAFCKAQGFTEDTIVFLPQTDKCMTEQ", "values": [
      {"measurement": "percentage of EdU-negative", "setting": "hTERT-HMEC; [7]", "result": "4.95 ± 1.2", "unit": "%"},
      {"measurement": "percentage of EdU-negative", "setting": "hTERT-HMEC; protein concentration 0.225 µM", "result": "7.39 ± 0.34", "unit": "%"},
      {"measurement": "percentage of EdU-negative", "setting": "MCF7; [7]", "result": "27.3 ± 2.4", "unit": "%"},
      {"measurement": "percentage of EdU-negative", "setting": "MCF7; protein concentration 0.225 µM", "result": "25.1 ± 1.9", "unit": "%"}
    ]},
    {"sequence": "MATMENKVICALVLVSMLALGTLAEAQTETCTVAPRERQNCGFPGVTPSQCANKGCCFDDTVRGVPWCFYPNTIDVPPEEECEF", "values": [
      {"measurement": "percentage of EdU-negative", "setting": "hTERT-HMEC; [8]", "result": "4.62 ± 0.35", "unit": "%"},
      {"measurement": "percentage of EdU-negative", "setting": "hTERT-HMEC; protein concentration 0.215 µM", "result": "5.31 ± 0.26", "unit": "%"},
      {"measurement": "percentage of EdU-negative", "setting": "MCF7; [8]", "result": "25.09 ± 0.25", "unit": "%"},
      {"measurement": "percentage of EdU-negative", "setting": "MCF7; protein concentration 0.215 µM", "result": "25 ± 1.6", "unit": "%"}
    ]},
    {"sequence": "MATMVPSVLWPRACWTLLVCCLLTPGVQGQEFLLRVEPQNPVLSAGGSLFVNCSTDCPSSEKIALETSLSKELVASGMGWAAFNLSNVTGNSRILCSVYCNGSQITGSSNITVYRLPERVELAPLPPWQPVGQNFTLRCQVEDGSPRTSLTVVLLRWEEELSRQPAVEEPAEVTATVLASRDDHGAPFSCRTELDMQPQGLGLFVNTSAPRQLRTFVLPVTPPRLVAPRFLEVETSWPVDCTLDGLFPASEAQVYLALGDQMLNATVMNHGDTLTATATATARADQEGAREIVCNVTLGGERREARENLTVFSFLGPIVNLSEPTAHEGSTVTVSCMAGARVQVTLDGVPAAAPGQPAQLQLNATESDDGRSFFCSATLEVDGEFLHRNSSVQLRVLYGPKIDRATCPQHLKWKDKTRHVLQCQARGNPYPELRCLKEGSSREVPVGIPFFVNVTHNGTYQCQASSSRGKYTLVVVMDIEAGSSHFVPVFVAVLLTLGVVTIVLALMYVFREHQRSGSYHVREESTYLPLTSMQPTEAMGEEPSRAE", "values": [
      {"measurement": "percentage of EdU-negative", "setting": "hTERT-HMEC; [7]", "result": "4.98 ± 0.59", "unit": "%"},
      {"measurement": "percentage of EdU-negative", "setting": "hTERT-HMEC; protein concentration 0.225 µM", "result": "16.4 ± 1.8", "unit": "%"},
      {"measurement": "percentage of EdU-negative", "setting": "MCF7; [7]", "result": "25.2 ± 0.75", "unit": "%"},
      {"measurement": "percentage of EdU-negative", "setting": "MCF7; protein concentration 0.225 µM", "result": "28 ± 1.2", "unit": "%"}
    ]},
    {"sequence": "MATSMGLLLLLLLLLTQPGAGTGADTEAVVCVGTACYTAHSGKLSAAEAQNHCNQNGGNLATVKSKEEAQHVQRVLAQLLRREAALTARMSKFWIGLQREKGKCLDPSLPLKGFSWVGGGEDTPYSNWHKELRNSCISKRCVSLLLDLSQPLLPSRLPKWSEGPCGSPGSPGSNIEGFVCKFSFKGMCRPLALGGPGQVTYTTPFQTTSSSLEAVPFASAANVACGEGDKDETQSHYFLCKEKAPDVFDWGSSGPLCVSPKYGCNFNNGGCHQDCFEGGDGSFLCGCRPGFRLLDDLVTCASRNPCSSSPCRGGATCVLGPHGKNYTCRCPQGYQLDSSQLDCVDVDECQDSPCAQECVNTPGGFRCECWVGYEPGGPGEGACQDVDECALGRSPCAQGCTNTDGSFHCSCEEGYVLAGEDGTQCQDVDECVGPGGPLCDSLCFNTQGSFHCGCLPGWVLAPNGVSCTMGPVSLGPPSGPPDEEDKGEKEGSTVPRAATASPTRGPEGTPKATPTTSRPSLSSDAPITSAPLKMLAPSGSPGVWREPSIHHATAASGPQEPAGGDSSVATQNNDGTDGQKLLLFYILGTVVAILLLLALALGLLVYRKRRAKREEKKEKKPQNAADSYSWVPERAESRAMENQYSPTPGTDC [Q9NPY3]", "values": [
      {"measurement": "percentage of EdU-negative", "setting": "hTERT-HMEC; [7]", "result": "5.36 ± 0.65", "unit": "%"},
      {"measurement": "percentage of EdU-negative", "setting": "hTERT-HMEC; protein concentration 0.225 µM", "result": "4.92 ± 0.54", "unit": "%"},
      {"measurement": "percentage of EdU-negative", "setting": "MCF7; [7]", "result": "25.7 ± 0.77", "unit": "%"},
      {"measurement": "percentage of EdU-negative", "setting": "MCF7; protein concentration 0.225 µM", "result": "26.9 ± 0.77", "unit": "%"}
    ]}
  ]
}
